Reference: publication PMC9333347

Target: thermostable exoshell tES(+)F116H
Assay: AUC

stoichiometry N (HRP molecules per tES shell): 2
Substance: horseradish peroxidase (from UniProt P00433 31-338) (enzyme)
